PMC5114558 (2016)
Where “and” joins values, the source holds several entries; their conditions need not be identical. Equal values may be shown once. Read-outs that look alike come from different tables or passages of the source. Values belong to the binder of their own block, whether it stands above or below them. Non-standard residues stand in square brackets, D forms with d. No end group written: not given here. Me2a = asymmetric dimethyl (on arginine); pT = C[C@@H](OP(=O)(O)O)[C@H](N)C(=O)O

B1: KDM4B double tudor domain (KDM4B-DTD), HaloTag-tagged, wild type (domain or fragment)
chain: RAVSLGQVVITKNRNGLYYRCRVIGAASQTCYEVNFDDGSYSDNLYPESITSRDCVQLGPPSEGELVELRWTDGNLYKAKFISSVTSHIYQVEFEDGSQLTVKRGDIFTLEEELP
B2: KDM4C double tudor domain (KDM4C-DTD), HaloTag-tagged, wild type (domain or fragment)
chain: KVISVGQTVITKHRNTRYYSCRVMAVTSQTFYEVMFDDGSFSRDTFPEDIVSRDCLKLGPPAEGEVVQVKWPDGKLYGAKYFGSNIAHMYQVEFEDGSQIAMKREDIYTLDEELP
B3: KDM4A-DTD N931D (domain or fragment)
chain: ALQSITAGQKVISKHKNGRFYQCEVVRLTTETFYEVDFDDGSFSDNLYPEDIVSQDCLQFGPPAEGEVVQVRWTDGQVYGAKFVASHPIQMYQVEFEDGSQLVVKRDDVYTLDEELP
B4: KDM4A double tudor domain (KDM4A-DTD), HaloTag-tagged, wild type (domain or fragment)
chain: ALQSITAGQKVISKHKNGRFYQCEVVRLTTETFYEVNFDDGSFSDNLYPEDIVSQDCLQFGPPAEGEVVQVRWTDGQVYGAKFVASHPIQMYQVEFEDGSQLVVKRDDVYTLDEELP
B5: KDM4A-DTD triple mutant N931D/D939R/D945R (DRR) (domain or fragment)
chain: ALQSITAGQKVISKHKNGRFYQCEVVRLTTETFYEVDFDDGSFSRNLYPERIVSQDCLQFGPPAEGEVVQVRWTDGQVYGAKFVASHPIQMYQVEFEDGSQLVVKRDDVYTLDEELP
modifications: HaloTag-Alexa 660 ligand conjugated to the HaloTag in the far western

Tests used:
Experiment in all cases: FP
H3K9me3 [1] = molecular target: H3K9me3
H3K27me3 [2] = molecular target: H3K27me3
KDM4A-DTD N931D = molecular target: B3
[3] = molecular target: B2
[4] = molecular target: B1
[5] = molecular target: B5
[6] = molecular target: B2
[7] = molecular target: B1
[8] = molecular target: B4
ING2-PHD = molecular target: T1, ING2-PHD
T1 chain: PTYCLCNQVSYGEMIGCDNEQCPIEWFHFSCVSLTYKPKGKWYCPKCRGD

KDM4B-DTD N960A = KDM4B-DTD N960A (human, UniProt O94953 917-1031, N960A)
Chain of KDM4B-DTD N960A (O94953 917-1031 N960A): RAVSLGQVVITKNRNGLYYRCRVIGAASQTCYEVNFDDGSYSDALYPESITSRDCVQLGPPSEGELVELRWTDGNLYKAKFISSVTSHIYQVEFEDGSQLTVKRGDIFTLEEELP

KDM4B-DTD S965D = KDM4B-DTD S965D (human, UniProt O94953 917-1031, S965D)
Chain of KDM4B-DTD S965D (O94953 917-1031 S965D): as the sequence (O94953 917-1031 N960A) above, with A44N, S49D counted along it

KDM4B-DTD N951G = molecular target: T2, KDM4B-DTD N951G (Homo sapiens)
T2 chain: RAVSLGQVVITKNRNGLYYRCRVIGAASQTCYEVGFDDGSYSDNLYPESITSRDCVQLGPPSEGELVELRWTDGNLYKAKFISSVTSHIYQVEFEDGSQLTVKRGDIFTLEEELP

KDM4B-DTD N951M = molecular target: T3, KDM4B-DTD N951M (Homo sapiens)
T3 chain: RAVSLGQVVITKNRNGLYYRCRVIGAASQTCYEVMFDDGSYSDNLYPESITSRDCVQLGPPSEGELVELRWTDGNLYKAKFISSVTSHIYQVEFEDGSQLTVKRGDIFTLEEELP

KDM4A-DTD N940A = molecular target: T4, KDM4A-DTD N940A (human, UniProt O75164 895-1011, N940A)
T4 sequence: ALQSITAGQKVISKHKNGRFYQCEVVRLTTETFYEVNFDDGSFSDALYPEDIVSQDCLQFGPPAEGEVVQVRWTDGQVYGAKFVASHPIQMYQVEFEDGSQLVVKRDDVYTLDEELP

KDM4A-DTD D945S = molecular target: T5, KDM4A-DTD D945S (human, UniProt O75164 895-1011, D945S)
T5 sequence: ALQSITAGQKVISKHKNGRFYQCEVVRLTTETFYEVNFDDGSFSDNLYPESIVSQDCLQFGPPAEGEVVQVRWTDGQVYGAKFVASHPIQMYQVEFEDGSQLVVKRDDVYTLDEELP

H3K9me3 [9] = molecular target: H3K9me3; remark: listed apart in the source
H3K27me3 [10] = molecular target: H3K27me3; remark: listed apart in the source
H3T3phK4me3 peptide = H3T3phK4me3 peptide (UniProt P68431, phosphothreonine at T3; trimethyl-lysine at K4)
H3K27me3 [11] = molecular target: H3K27me3; remark: listed apart in the source

Binder: B1
Kd (H3K9me3 [1]): 800 µM
Kd (H3K27me3 [2]): 140 µM

Binder: B2
Kd (H3K27me3 [2]): 104 µM

Binder: RKQLATK(Me3)AARKSAPAT (also: fluorescein label, end not given here) [H3 (17-32) K23me3 peptide, fluorescein-labelled]
Kd (ING2-PHD): 257 µM
Kd (KDM4B-DTD N960A): 107 µM
Kd (KDM4B-DTD S965D): 16.4 µM
Kd (KDM4B-DTD N951G): 32.6 µM
Kd (KDM4B-DTD N951M): 41.4 µM
Kd [6]: 73.6 µM

Binder: B3
Kd (H3K9me3 [9]): 83.3 µM
Kd (H3K27me3 [10]): 98.6 µM

Binder: B4
Kd (H3T3phK4me3 peptide): 122 µM
Kd (H3K27me3 [2]): 122 µM

Binder: B5
Kd (H3K27me3 [11]): 570 µM

Continued, values first:

Kd (KDM4A-DTD N931D): 18.7 µM
Kd [3]: 507 µM
Kd [4]: 130 µM and 259 µM
Binder: RKQLA[pT]K(Me3)AARKSAPAT (also: fluorescein label, end not given here) [H3T22phK23me3 peptide, fluorescein-labelled]

Kd (KDM4A-DTD N931D): 2.6 µM
Kd [3]: 180 µM
Kd [4]: 35.3 µM
Binder: RKQLATK(Me2)AARKSAPAT (also: fluorescein label, end not given here) [H3K23me2 peptide (dimethylated H3K23), fluorescein-labelled]

Kd (KDM4A-DTD N931D): 27.7 µM
Kd [3]: 72.5 µM
Kd [4]: 180 µM
Binder: RKQLATK(Me3)AAAKSAPAT (also: fluorescein label, end not given here) [H3K23me3R26A peptide, fluorescein-labelled]

Kd [5]: 158 µM
Kd [6]: 166 µM
Kd [7]: 165 µM
Kd [8]: 108 µM
Binder: ARKSTGGK(Me3)APRKQLATK (also: fluorescein label, end not given here) [H3K14me3 peptide, fluorescein-labelled]

Kd (KDM4A-DTD N931D): 2.7 µM
Kd (ING2-PHD): 5.8 µM
Kd [5]: 370 µM
Kd (KDM4A-DTD N940A): 74.1 µM
Kd (KDM4A-DTD D945S): 151 µM
Kd [8]: 2.7 µM
Binder: ARTK(Me3)QTARKSTGGK (also: fluorescein label, end not given here) [H3K4me3 peptide, fluorescein-labelled]

Kd (KDM4A-DTD N931D): 6 µM
Kd [3]: 43.7 µM
Kd [4]: 53.1 µM
Binder: RKQLATK(Me3)AAR(Me2a)KSAPAT (also: fluorescein label, end not given here) [H3K23me3R26me2a peptide, fluorescein-labelled]

Kd [6]: 58.7 µM
Kd [7]: 60 µM
Binder: AKRHRK(Me3)VLRDN (also: fluorescein label, end not given here) [H4K20me3 peptide, fluorescein-labelled]

Kd (KDM4A-DTD N931D): 31.1 µM
Kd [3]: 520 µM
Kd [4]: 155 µM
Binder: RKQLATK(Me)AARKSAPAT (also: fluorescein label, end not given here) [H3K23me1 peptide (monomethylated H3K23), fluorescein-labelled]
